# Test results as given in article PMC2966416.
# Tests used:
# [1] = target: NCenH3^CenpA-lacI (human)
# [2] = target: NCenH3^Cse4-lacI (Saccharomyces cerevisiae)
substance,measurement,setting,value
BubR1 (natural protein),silencing of the white-reporter (eye pigmentation) in S9.2 flies on tethering of the lacI fusion: share of lines with significant silencing,[1],50 % of lines
same,silencing of the white-reporter (eye pigmentation) in S9.2 flies on tethering of the lacI fusion: share of lines with strong silencing,[2],75 % of lines
